These results are taken from the supplement of paper PMC5998384.

For series [1], the system named is HeLa Kyoto. Kind of series: melting temperature (median over replicates), in situ; higher = more thermally stable.
The subject of series [2] is HeLa Kyoto. The experiment in a line: thermal stability score vs G1/S (z-score of summed log2 fold changes over temperatures); higher = more thermally stable than in G1/S.
For series [3], the system named is HeLa Kyoto. The experiment in a line: solubility in G1/S (NP-40 vs SDS abundance) (log2 ratio); higher = more soluble. The following applies: cell cycle stage: G1/S.
Series [4] concerns HeLa Kyoto. The experiment in a line: solubility change mitosis vs G1/S (difference of NP-40 vs SDS log2 ratios) (log2 ratio difference); higher = more soluble in mitosis.
Setting [5] is: cell cycle stage: early G1 (4.5 h after nocodazole release).
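For melting temperature (median over replicates), in situ in this document: HeLa Kyoto cells synchronized by double thymidine or nocodazole block, proteins quantified by TMT10plex mass spectrometry, three independent biological replicates.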
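For solubility change mitosis vs G1/S (difference of NP-40 vs SDS log2 ratios) in this document: synchronized HeLa Kyoto cells (double thymidine block for G1/S, nocodazole release for mitosis), protein amounts in NP-40 versus SDS lysates quantified by mass spectrometry, three biological replicates.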
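For solubility in G1/S (NP-40 vs SDS abundance) in this document: HeLa Kyoto cells arrested at G1/S by double thymidine block, proteins quantified by TMT10plex mass spectrometry in mild NP-40 versus SDS extracts, three biological replicates.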
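For thermal stability score vs G1/S (z-score of summed log2 fold changes over temperatures) in this document: synchronized HeLa Kyoto cells, proteins quantified by TMT10plex mass spectrometry, three biological replicates, mitosis taken 0.5 h after nocodazole release, G1/S directly after double thymidine block.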

Turning to “MSNRVVCREASHAGSWYTASGPQLNAQLEGWLSQVQSTKRPARAIIAPHAGYTYCGSCAAHAYKQVDPSITRRIFILGPSHHVPLSRCALSSVDIYRTPLYDLRIDQKIYGELWKTGMFERMSLQTDEDEHSIEMHLPYTAKAMESHKDEFTIIPVLVGALSESKEQEFGKLFSKYLADPSNLFVVSSDFCHWGQRFRYSYYDESQGEIYRSIEHLDKMGMSIIEQLDPVSFSNYLKKYHNTICGRHPIGVLLNAITELQKNGMNMSFSFLNYAQSSQCRNWQDSSVSYAAGALTVH [MEMO1]”, the melting temperature in series [1] (cell cycle stage: G1/S) was found to be 53.7 °C; in series [1] (cell cycle stage: mitosis), 54.2 °C. Besides, the thermal stability score was -0.361 in series [2] (setting [5]) and -0.452 in series [2] (cell cycle stage: mitosis). Also, the “solubility in G1/S (log2)” value in series [3] was determined as 0.029. Further, the “solubility change mitosis (log2)” value in series [4] is -0.0409.
As for “MSNVSEERRKRQQNIKEGLQFIQSPLSYPGTQEQYAVYLRALVRNLFNEGNDVYREHDWNNSISQYTEALNIADYAKSEEILIPKEIIEKLYINRIACYSNMGFHDKVLEDCNIVLSLNASNCKALYRKSKALSDLGRYKKAYDAVAKCSLAVPQDEHVIKLTQELAQKLGFKIRKAYVRAELSLKSVPGDGATKALNHSVEDIEPDLLTPRQEAVPVVSLPAPSFSHEVGSELASVPVMPLTSILPLQVEESALPSAVLANGGKMPFTMPEAFLDDGDMVLGDELDDLLDSAPETNETVMPSALVRGPLQTASVSPSMPFSASLLGTLPIGARYAPPPSFSEFYPPLTSSLEDFCSSLNSFSMSESKRDLSTSTSREGTPLNNSNSSLLLMNGPGSLFASENFLGISSQPRNDFGNFFGSAVTKPSSSVTPRHPLEGTHELRQACQICFVKSGPKLMDFTYHANIDHKCKKDILIGRIKNVEDKSWKKIRPRPTKTNYEGPYYICKDVAAEEECRYSGHCTFAYCQEEIDVWTLERKGAFSREAFFGGNGKINLTVFKLLQEHLGEFIFLCEKCFDHKPRMISKRNKDNSTACSHPVTKHEFEDNKCLVHILRETTVKYSKIRSFHGQCQLDLCRHEVRYGCLREDECFYAHSLVELKVWIMQNETGISHDAIAQESKRYWQNLEANVPGAQVLGNQIMPGFLNMKIKFVCAQCLRNGQVIEPDKNRKYCSAKARHSWTKDRRAMRVMSIERKKWMNIRPLPTKKQMPLQFDLCNHIASGKKCQYVGNCSFAHSPEEREVWTYMKENGIQDMEQFYELWLKSQKNEKSEDIASQSNKENGKQIHMPTDYAEVTVDFHCWMCGKNCNSEKQWQGHISSEKHKEKVFHTEDDQYCWQHRFPTGYFSICDRYMNGTCPEGNSCKFAHGNAELHEWEERRDALKMKLNKARKDHLIGPNDNDFGKYSFLFKDLN [ZC3H7A]”, the melting temperature in series [1] (cell cycle stage: G1/S) amounted to 48.5 °C; in series [1] (cell cycle stage: mitosis) it was 47.7 °C. The thermal stability score in series [2] (setting [5]) stood at 0.548; in series [2] (cell cycle stage: mitosis), 2.36. Moreover, in series [3], the “solubility in G1/S (log2)” value is -0.49. The “solubility change mitosis (log2)” value in series [4] came out at 0.169.
With “MSPTISHKDSSRQRRPGNFSHSLDMKSGPLPPGGWDDSHLDSAGREGDREALLGDTGTGDFLKAPQSFRAELSSILLLLFLYVLQGIPLGLAGSIPLILQSKNVSYTDQAFFSFVFWPFSLKLLWAPLVDAVYVKNFGRRKSWLVPTQYILGLFMIYLSTQVDRLLGNTDDRTPDVIALTVAFFLFEFLAATQDIAVDGWALTMLSRENVGYASTCNSVGQTAGYFLGNVLFLALESADFCNKYLRFQPQPRGIVTLSDFLFFWGTVFLITTTLVALLKKENEVSVVKEETQGITDTYKLLFAIIKMPAVLTFCLLILTAKIGFSAADAVTGLKLVEEGVPKEHLALLAVPMVPLQIILPLIISKYTAGPQPLNTFYKAMPYRLLLGLEYALLVWWTPKVEHQGGFPIYYYIVVLLSYALHQVTVYSMYVSIMAFNAKVSDPLIGGTYMTLLNTVSNLGGNWPSTVALWLVDPLTVKECVGASNQNCRTPDAVELCKKLGGSCVTALDGYYVESIICVFIGFGWWFFLGPKFKKLQDEGSSSWKCKRNN [SLC33A1]”, the melting temperature in series [1] (cell cycle stage: G1/S) was 58.5 °C; in series [1] (cell cycle stage: mitosis), 57.9 °C. Moreover, the thermal stability score in series [2] (setting [5]) is -1.24; in series [2] (cell cycle stage: mitosis), -1.12. Further, the “solubility in G1/S (log2)” value in series [3] is -0.0645. Besides, in series [4], the “solubility change mitosis (log2)” value is -0.141.
In the case of “MSQSGAVSCCPGATNGSLGRSDGVAKMSPKDLFEQRKKYSNSNVIMHETSQYHVQHLATFIMDKSEAITSVDDAIRKLVQLSSKEKIWTQEMLLQVNDQSLRLLDIESQEELEDFPLPTVQRSQTVLNQLRYPSVLLLVCQDSEQSKPDVHFFHCDEVEAELVHEDIESALADCRLGKKMRPQTLKGHQEKIRQRQSILPPPQGPAPIPFQHRGGDSPEAKNRVGPQVPLSEPGFRRRESQEEPRAVLAQKIEKETQILNCALDDIEWFVARLQKAAEAFKQLNQRKKGKKKGKKAPAEGVLTLRARPPSEGEFIDCFQKIKLAINLLAKLQKHIQNPSAAELVHFLFGPLDLIVNTCSGPDIARSVSCPLLSRDAVDFLRGHLVPKEMSLWESLGESWMRPRSEWPREPQVPLYVPKFHSGWEPPVDVLQEAPWEVEGLASAPIEEVSPVSRQSIRNSQKHSPTSEPTPPGDALPPVSSPHTHRGYQPTPAMAKYVKILYDFTARNANELSVLKDEVLEVLEDGRQWWKLRSRSGQAGYVPCNILGEARPEDAGAPFEQAGQKYWGPASPTHKLPPSFPGNKDELMQHMDEVNDELIRKISNIRAQPQRHFRVERSQPVSQPLTYESGPDEVRAWLEAKAFSPRIVENLGILTGPQLFSLNKEELKKVCGEEGVRVYSQLTMQKAFLEKQQSGSELEELMNKFHSMNQRRGEDS [EPS8L2]”, the melting temperature amounted to 50.4 °C in series [1] (cell cycle stage: G1/S) and 50.1 °C in series [1] (cell cycle stage: mitosis). Also, the thermal stability score is 0.00646 in series [2] (setting [5]) and 0.475 in series [2] (cell cycle stage: mitosis). Besides, the “solubility in G1/S (log2)” value in series [3] stood at 0.468. The “solubility change mitosis (log2)” value in series [4] was -0.0548.
